Values of other authors as cited in patent US20150182494A1, “METHOD OF MANAGING DIABETIC FOOT ULCERS, PRESSURE ULCERS, VENOUS LEG ULCERS AND ASSOCIATED COMPLICATION” (INDUS BIOTECH PRIVATE LIMITED, priority 2012, published 2015).

Details: patients treated with 3 or more tubes

Substance: becalpermin [Regranex gel]
- Mortality secondary to malignancy, in words: increased rate of mortality secondary to malignancy
